The source of these data is the DeepSol protein solubility set.

This data set in a line: soluble on expression in E. coli; label from the status in PepcDB or PDB records.
For the sequence “GPGSMVAKQHFLAAVKMTPARGAAAALSPPQTAEVVGRTAAGGKGCSGSFVDRRLENVMARAREMGWTSPESLIESLKAAQWHSHGKTPAIAEAEAAALPSPHVPAFKPDALSSSSDRHAQPRLPQPRDETPHQARKGAAVSGANSSITECWSGHGPVSQQPHTPHQGADACRAFPSSRTESADSAMRVEATRVLCSGGAAHAGLPSESLLSPPAAESSRVAGTGHAYPPAPLQGHEGLVSSGLTNPLTRLTMPTSATAGAAAAQPLIELEQELVKLRHLVRTLESKQFVHAHQSSAQASELQAQCAELQHQQLAQAKELRLALARLISVGNELEGLRDVKTHLQMQLTASQQESARLRDALLMGETRARDVQ”, the “soluble on expression in E. coli” value was “not soluble”.

Turning to “SNANNLFVYCEIEEGIVADVSLELLTKGRSLANELNCQLEAVVAGTGLKEIEKQILPYGVDKLHVFDAEGLYPYTSLPHTSILVNLFKEEQPQICLMGATVIGRDLGPRVSSALTSGLTADCTSLEIGDHEDKKEGKVYKNLLYQIRPAFGGNIVATIVNPEHRPQMATVREGVMKKEIVSPAYQGEVIRHDVKKYVADTDYVVKVIERHVEKAKNN”, the “soluble on expression in E. coli” value is given as “soluble”.

In the case of “MGSDKIHHHHHHMDALVRASGLRGYPALMRDLGCDPTPLLQRYHLDEGALGSDDAMISLRAVVHLLEASAEQTRTGDLGLRLSRHQSIDVLGPLSIALQNAPTIRAAMDFAARHTFVHSPGLVYAVHKHSEFANDAAEVSIEIRLSRQPAQRQTIDLCLADIHNFTRLLAGDRYLLRAVSVPHTPVVPVSTYERFFGARVWVEQPRASLHLSRSTLAADLLGVDATLRRIAEDYIFRHFGSEQGSVSDRVRQVLRQTLGTSSHSKATVADLLALHPRTMQRRLAAEATSFEAIRDDVRRELAMRYLCETSLPLGQISLLLGLPAQSALSRACRQWYGVPPSALRKHKRAAD”, the “soluble on expression in E. coli” value is listed as “not soluble”.

For the sequence “MGLEVAADSVGSALAAQDGGAIRVELCGGLDGGGLTPSFGTLAVVRERLQIPLYVLIRPRVGDFVFDAAEVEVMRRDVEQCVRLGCDGVVLGALDPQGQVDLPAMRALIEAAGTLGVTFHRAIDVSADPARVLEDAITLGCERVLTSGARASALEGVETIAALVRQAGERISIMPGAGVSAANVQALRAGTGAREFHASARGPVAAQVHAPHPYITDLGGDYQRTDVARVRSIVQLLQTALEHHHHHH”, the “soluble on expression in E. coli” value was “not soluble”.

For the sequence “MGSDKIHHHHHHMIDEHHIDALTKLLGDKGVVTRREDMEAYEAGARYDRGRAAAVLRPVTTEEVSAAVGYCVRSGIALIPQSGNTGLVSGSTPDESGSEVVVSLDRLTRQFALDLDNRSVRVDAGFRLSELNRRLEEHGLFFPIDLGADPRIGGMIATNTGGSRFLKYGDVRRNTLGLKVVLADEAGTVLDLGSDLRKNNTGVDWKQIFIGTSGAFGIVTECVLNLERLPKQTATAFLVPASGAHVLPLLKAMEERLGAYLSAFEGMSRNAIAAAFAHVPALKNPFQGGKVPDYVILAEISRTSSPREGEQPLDAVLESVLAEIWEMEEVLLADALVGPPHEIWALRHALSEGVKHLGKLIAFDLSFRRGDIMAFCDHMKTEMPEKFPGVTVCDFGHIGDGGVHFNLVVAKDSPLLADATFEQRLREWVFAVAVEQYHGSFSAEHALGRRNQAFYDLYTPEKLKNMAAGLKTLTSPGKLGSVRFG”, the “soluble on expression in E. coli” value was “not soluble”.

In the case of “MGSDKIHHHHHHMKLLMLCREPRLYSCQRLKESAEDNGHQIDILDPNRCLLKLSKNAPHFELYYQVNSKSEPYLLPDYDAIIPRFGSTSTRMGCAVLRHFRTKNIFCLNDDVAFLKARDKWLSLQLLTEQGIAVPNSALSGAEFSATQAILQIQSPTILKTLHGSQGIGVILAENRKSAVSIMETLTQADVPLLMQDFIQEAQGTDIRCFVIGDKVVATMQRIGQEDEFRANFHRGGSAEKIQLTEQEKVLALKATKCLGLDVAGVDLIRSKQGLLVLEVNASPGLEMIEKTSGIDIALQMIVHIEKQFKR”, the “soluble on expression in E. coli” value was “not soluble”.

For “MTEKGRAIEEESFRIVDQEAGPHGFSPLEWPVVRRMIHATADFEYKALTRFSQGAVEAGLKAIQAGARILVDARMIACGLNPERLRLFGNEVVELLAHPEVVARAKATGGTRAEAAVAYAWEKGLLDGAIVGVGNAPTFLLALVEAIRQGARPALVLGMPVGFVNVLEAKRALMEAPVPWIVTEGRKGGSTLVVAALHALIRLAADGGVDTSRAYREG”, the “soluble on expression in E. coli” value is “soluble”.

In the case of “MGSDKIHHHHHHMKIGIITICKVNNYGAELQAFATQKKLEQMGHNAEIINYLYYKDWHFKDTPLSQPFVPLDMKGKLSYWIKYRLMSWVVNKVLPIFNGNMRRRLHNYQSFIDSERFSAQYKSMDELYKTYPKYDIYMVGSDQVWNPSASSSIEPYFLTFAPKNAPKVTYASSFGVASIAPNLSKRYAKLLNNLDTIAVREQSGVELVKQLTGREAKLVVDPTLLLSKADWEPYMKPLAKISTQYILIYQLFPSQTVIDVALKIGKEKNLPVYNICKRAYGMKKIVGINNILDAGPSEFLWLIANATCMVTNSFHGTAFSVNFATPFCCVLNRKRKNNGRMISFLDKVDMSNRILYEDSIAELNVMTACSEVTNNHLRLLVNNSIDYLKSIIENKEQKC”, the “soluble on expression in E. coli” value is given as “not soluble”.

As to “MSLQRFKFLMYQVVASDLDGTLLSPDHTLSPYAKETLKLLTARGINFVFATGRHHVDVGQIRDNLEIKSYMITSNGARVHDLDGNLIFAHNLDRDIASDLFGVVNDNPEIITNVYRDDEWFMNRHRPEEMRFFKEAVFNYALYEPGLLEPEGVSKVFFTCDSHEKLLPLEQAINARWGDRVNVSFSTLTCLEVMAGGVSKGHALEAVAKKLGYSLQDCIAFGDGMNDAEMLSMAGKGCIMGSAHQRLKDLHPELEVIGTNAEDAVPHYLRKLYLSEGHHHHHH”, the “soluble on expression in E. coli” value was “soluble”.

For “MGSDKIHHHHHHMSKAMISRENYLQQLIQFKDTDFIKVISGVRRSGKSVLLMQYRDYLQQQGIASENILYLNFESFEYQWVKDAQDFQQLIQEKMPSSQEKIYFLIDEIQFVEGWQKIVNALRVSFNTDIVITGSNANLLSGELATLLSGRYVEIKIYPLSFKEFLHAKNVDSQSRLVDKLYSEYEKYGGFPSVVMADEPLKETILSGIFDSIVLNDIAHRAGVKDTHILKSVILFLADNVGQLVNPSKISNTLTSERVPTSNHTISKYLDLLENAFLFYKAKQYDIRGKGYLKTNAKYFIVDNGLRRHAIGKKGANYANRLENIVFIELLRRGYSVDVGKLDSKEIDFIARKADEILYVQVAFEIPENTHETDNLLHIKDNYKKILITGKYYEQTEIDGIEVIYVVDWLLQ”, the “soluble on expression in E. coli” value is “not soluble”.

With “PMVALVGARNASSLGLRMARKLAAALGEAGYVVVSGLARGIDAEAHAAALGQGTVAVQAGGVDVIYPAENAGLAAEIAARGCRISEQPMGLVPQARHFPLRNRIVSGLARAVVVVEAAARSGSLITAREALDQGREVLAVPGHPFDPRAAGGNQLIREGATLVRHAADVIEAIGTAHPA”, the “soluble on expression in E. coli” value is on record as “not soluble”.

As for “MTAQTHNDVAVCWNQNANQWTSDVRNGYDVYRDFFTLPAFLQFLPTMADLNVIDFGCGEGSNTRHFAQMGAKVVGIDISNGLIEHARQAERVDPVGITYKIVSYSSDTGFPASSFDAVVSTMALMDGPDLQGAMHEAYRLLRPGGFVAFSVLHPCFITPGWQWQKDENGQTTGLCTSRYFDKSGFTENWKFGNRPKDENVAPFAVPRFPRTIGDYINAVASVGFRISKIEEPQPTEEACKAIPQLRRWRDLGAFLLLVIAERPKLEHHHHHH”, the “soluble on expression in E. coli” value is recorded as “soluble”.

Take “MRAVIPYKKAGAKSRLSPVLSLQEREEFVELMLNQVISSLKGAGIEQVDILSPSVYGLEEMTEARVLLDEKDLNEALNRYLKEAEEPVLIVMADLPLLSPEHIKEISSTEKDVCIVPGKGGGTNALFIKNPSKYRVKYYGSSFLTHCSIATDSGQDFEIYDSFMAGTDIDEPEDLVELLIHGKGAAKDYIESKFRLEVKKG”: the “soluble on expression in E. coli” value is listed as “not soluble”.

On to “SMNFYSAYQHGFVRVAACTHHTTIGDPAANAASVLDMARACHDDGAALAVFPELTLSGYSIEDVLLQDSLLDAVEDALLDLVTESADLLPVLVVGAPLRHRHRIYNTAVVIHRGAVLGVVPKSYLPTYREFYERRQMAPGDGERGTIRIGGADVAFGTDLLFAASDLPGFVLHVEICEDMFVPMPPSAEAALAGATVLANLSGSPITIGRAEDRRLLARSASARCLAAYVYAAAGEGESTTDLAWDGQTMIWENGALLAESERFPKGVRRSVADVDTELLRSERLRMGTFDDNRRHHRELTESFRRIDFALDPPAGDIGLLREVERFPFVPADPQRLQQDCYEAYNIQVSGLEQRLRALDYPKVVIGVSGGLDSTHALIVATHAMDREGRPRSDILAFALPGFATGEHTKNNAIKLARALGVTFSEIDIGDTARLMLHTIGHPYSVGEKVYDVTFENVQAGLRTDYLFRIANQRGGIVLGTGDLSELALGWSTYGVGDQMSHYNVNAGVPKTLIQHLIRWVISAGEFGEKVGEVLQSVLDTEITPELIPTGEEELQSSEAKVGPFALQDFSLFQVLRYGFRPSKIAFLAWHAWNDAERGNWPPGFPKSERPSYSLAEIRHWLQIFVQRFYSFSQFKRSALPNGPKVSHGGALSPRGDWRAPSDMSARIWLDQIDREVPKG”, for which the “soluble on expression in E. coli” value is reported as “soluble”.

“SHEWYAEKPFMLRSFLDRTVLQQAFESPETLTSLGFLESIGITGHNAELDDDRPEKTDALFAEMKKVKETLLTYDDSDLDESQLLSKEIAMYLLDILLVSEPYRYHNYPVNQLFGIQNGYPSFMDAQHQVNSVGDAENYIARLNKVKVKFSQNLEGLKLREEKGILPPRFVIDRVLEEMTAFVAKPAEENILYSSLKAKLSDAEDISPAEQTRLLNLAKEEIIASVHPAYQLLIDYFNQVADKSTTDDGIWKLPDGDKVYAQALKFFTTTDYSAGEIHNIGLHEVDRIQLDILTILEKENYDVSQGFTAAIETLAAQDEFYYPDTKAGREQILTDYQTILDEINAGLESAFRIRPKASMKVRRIPEFKEKTAPGAYYQQPSIDGSRPGMFFANLYDIKATPKYSMRTLAYHEGIPGHHFQIAIAMELEGMPLFRRISPFTAYTEGWALYTERLAWDLGFQDDPFDNIGRLQAELFRAVRLVVDTGIHHKRWTRQEAIDYMVANTGMAHSDVVSEIERYIVMPGQATSYKIGLMKILELRKKAKASLGDKFDLRDFHDVVLKNGAVPLDILTRLVDQYIADKSS”: the “soluble on expression in E. coli” value is listed as “not soluble”.

“MGMIIMVGDGMGPAYTSAYRYFQDNPDTEEIEQTVFDRLLVGMASTYPARESGYVTDSAASATALATGFKSYNGAIAVDINKRPLTTIMQMAKARGMSTGVAVTAQVNHATPAAFLTHNESRKNYEAIAADMLKSDADVILGGGRKYFSEALVSQFSAKGYQHITELAQLDSITQPKVLGLFAEVQLPWVIDDTDANTLSKLTQKSLDLLSQNEKGFVLLVEGSLIDWAGHNNDIATAMAEMQGFANAIEVVEQYIRQHPDTLLVVTADHNTGGLSIGANGEYQWDTKLPKGISASPASIATHAIAADDWQAGVNQQLGFDVNSTELQQLTNARMQGKSTLEVALKKIIDTRSYTGWTTSGHTGVDVQVFAMGPAADLFKGNQDNTHIAEKMMSLLPKVN”: the “soluble on expression in E. coli” value was “soluble”.

In the case of “MLMKVAEFERLFRQAAGLDVDKNDLKRVSDFLRNKLYDLLAVAERNAKYNGRDLIFEPDLPIAKGLQETLQEFRRMDTALELKPVLDALAALPPLDLEVAEDVRNLLPELAGALVVAYARVLKELDPALKNPQTEHHERAERVFNLLL”, the “soluble on expression in E. coli” value is listed as “soluble”.
